According to article PMC11926218, “Structure and unusual binding mechanism of the hyaluronan receptor LYVE-1 mediating leucocyte entry to lymphatics” (Nature Communications, 2025):

Biological target: the molecule itself
Test: SEC; Superdex Increase 200 10/300GL, protein in PBS after His Trap purification; step run to remove aggregates

B1: wild-type hLYVE-1 Δ238 His10 (soluble full ectodomain of human LYVE-1) (domain or fragment, UniProt Q9Y5Y7 20-238, looked up)
chain: LVQGSLRAEELSIQVSCRIMGITLVSKKANQQLNFTEAKEACRLLGLSLAGKDQVETALKASFETCSYGWVGDGFVVISRISPNPKCGKNGVGVLIWKVPVSRQFAAYCYNSSDTWTNSCIPEIITTKDPIFNTQTATQTTEFIVSDSTYSVASPYSTIPAPTTTPPAPASTSIPRRKKLICVTEVFMETSTMSTETEPFVENKAAFKNEAAGFGGVPT
notes: signal peptide in the construct; Obtained as a mixture of monomer and disulfide-linked homodimer; The protein is glycosylated, made in CHO cells; also called hLYVE-1 full wild-type ectodomain; hLYVE-1 Δ238 with a His10 single tag; source: CHO-K1, transfected (pEE14), culture supernatant, purified (His Trap, size exclusion chromatography); not shown: His10, C-terminal, kept
B1: binds.
